For three molecules, ECL signal results are on record in US20120058906A1 (published 2012).

Assay [1] addresses T1, Recombinant Human DLL4 (R&D Systems Cat#1506-D4/CF) (human, UniProt Q9NR61 27-524).
T1 construct: Bought recombinant protein; also called delta-like protein 4; rHuman DLL4
The assay can be described thus: ECL (MSD Multi-Spot) binding assay, antigen spotted on plate; Fab 120 nM; blank spot 363.

For assay [2], the target named is T2, rHuman CD44/Fc Chimera, CF (R&D Systems Cat#3660-CD) (human, UniProt P16070 21-220).
T2 construct: Bought Fc chimera; Fc part of the bought chimera not given
Described as above.

Assay [3] deals with T3, rHuman P-Cadherin/Fc Chimera, CF (R&D Systems Cat#861-PC) (human, UniProt P22223 108-654).
T3 construct: Bought Fc chimera; also called CDH3; Fc part of the bought chimera not given
The description is as above.

The target of assay [4] is T4, rHuman IGF-1 sR, (IGF-1 sR), CF (R&D Systems Cat#391-GR) (human, UniProt P08069 31-932).
T4 construct: also called insulin-like growth factor-1 soluble receptor; IGF-R1
Briefly: MSD ECL multi-spot plate; Fab 8.1 nM; blank spot 435.

In assay [5] the target is T5, rHuman Erythropoietin R/Fc Chimera, CF (R&D Systems Cat#963-ER) (human, UniProt P19235 25-250).
T5 construct: also called EPO R/Fc; Epo R; Fc part of the bought chimera not given
T5 sequence: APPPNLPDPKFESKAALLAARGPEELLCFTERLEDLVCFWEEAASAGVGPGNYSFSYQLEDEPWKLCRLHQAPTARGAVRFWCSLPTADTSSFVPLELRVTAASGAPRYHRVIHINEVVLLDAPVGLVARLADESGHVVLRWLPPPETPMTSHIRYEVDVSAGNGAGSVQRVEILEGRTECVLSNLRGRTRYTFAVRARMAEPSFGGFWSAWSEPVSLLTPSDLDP
The description is as above.

Assay [6] has as its target T6, Recombinant Human DLL4 (R&D Systems Cat#1506-D4/CF) (human, UniProt Q9NR61 27-524).
T6 construct: also called delta-like protein 4
The description is as above.

Assay [7] concerns the target T7, rHuman HGF R/c-MET/Fc Chimera, CF (R&D Systems Cat#358-MT/CF) (human, UniProt P08581 25-932).
T7 construct: also called HGF R/Fc; hepatocyte growth factor receptor; Fc part of the bought chimera not given
Described as above.

Assay [8] deals with T8, rHuman Notch-1/Fc Chimera, CF (R&D Systems Cat#3647-TK) (human, UniProt P46531 19-526).
T8 construct: Fc part of the bought chimera not given
The description is as above.

Assay [9] concerns the target T9, rHuman CD44/Fc Chimera, CF (R&D Systems Cat#3660-CD) (human, UniProt P16070 21-220).
T9 construct: Fc part of the bought chimera not given
The description is as above.

Assay [10] addresses T10, rHuman Erythropoietin R/Fc Chimera, CF (R&D Systems Cat#963-ER) (human, UniProt P19235 25-250).
T10 construct: Bought reagent; also called EPO R/Fc; Epo R; Fc part of the bought chimera not given
T10 sequence: T5 sequence
The assay can be described thus: ECL (MSD multi-spot), antigen spotted on plate; Fab 22 nM; blank spot 289.

Assay [11] has as its target T11, Recombinant Human DLL4 (R&D Systems Cat#1506-D4/CF) (human, UniProt Q9NR61 27-524).
T11 construct: Bought reagent; also called delta-like protein 4
The assay is described as above.

Assay [12] deals with T12, rHuman ErbB2/Fc Chimera, CF (R&D Systems Cat#1129-ER) (human, UniProt P04626 23-652).
T12 construct: Bought reagent; also called HER2/neu; human epidermal growth factor 2 receptor; Fc part of the bought chimera not given
Described as above.

In assay [13] the target is T13, rHuman EGF R/Fc Chimera, CF (R&D Systems Cat#344-ER) (human, UniProt P00533 25-645).
T13 construct: Bought reagent; also called epidermal growth factor receptor; Fc part of the bought chimera not given
Described as above.

Assay [14] addresses T14, rHuman HGF R/c-MET/Fc Chimera, CF (R&D Systems Cat#358-MT/CF) (human, UniProt P08581 25-932).
T14 construct: Bought reagent; also called HGF R/Fc; hepatocyte growth factor receptor; Fc part of the bought chimera not given
Described as above.

The target of assay [15] is T15, rHuman Notch-1/Fc Chimera, CF (R&D Systems Cat#3647-TK) (human, UniProt P46531 19-526).
T15 construct: Bought reagent; Fc part of the bought chimera not given
The assay is described as above.

Assay [16] has as its target T16, rHuman CD44/Fc Chimera, CF (R&D Systems Cat#3660-CD) (human, UniProt P16070 21-220).
T16 construct: Bought reagent; Fc part of the bought chimera not given
Described as above.

The target in assay [17] is T17, rHuman IGF-1 sR (IGF-1 sR), CF (R&D Systems Cat#391-GR) (human, UniProt P08069 31-932).
T17 construct: Bought soluble receptor; also called insulin-like growth factor-1 soluble receptor; IGF-R1
Described as above.

In assay [18] the target is T18, rHuman P-Cadherin/Fc Chimera, CF (R&D Systems Cat#861-PC) (human, UniProt P22223 108-654).
T18 construct: Bought reagent; also called CDH3; Fc part of the bought chimera not given
The description is as above.
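Note: blank spot per well as comparator with Hit at signal to blank ratio of 4 or more.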

B1: Fab VH6-1_IGHD3-3*01_IGHJ4*01 & V4-3_IGLJ4*01 (Fab, V domains shown)
VH: QVQLQQSGPGLVKPSQTLSLTCAISGDSVSSNSAAWNWIRQSPSRGLEWLGRTYYRSKWYNDYAVSVKSRITINPDTSKNQFSLQLNSVTPEDTAVYYCAREYYDFWSGYYTDYFDYWGQGTLVTVSS
VL: QPVLTQPTSLSASPGASARLTCTLRSGINLGSYRIFWYQQKPESPPRYLLSYYSDSSKHQGSGVPSRFSGSKDASSNAGILVISGLQSEDEADYYCMIWHSSASFVFGGGTQLIIL
notes: Tested as a Fab made in E. coli; also called IGHV6-1*01
With B1, the values for the ECL signal in [1], in [2] and in assay [3] were 938, 442 and 450, respectively.

B2: Fab VH1-8_IGHD2-2*01_IGHJ6*01 & L12_IGKJ1*01 (Fab, V domains shown)
VH: QVQLVQSGAEVKKPGASVKVSCKASGYTFTSYDINWVRQATGQGLEWMGWMNPNSGNTGYAQKFQGRVTMTRNTSISTAYMELSSLRSEDTAVYYCARGGYCSSTSCYADYYYYYGMDVWGQGTTVTVSS
VL: not shown
With B2, the ECL signal in [4] is 518 ECL signal; in [5], 660 ECL signal; in [6], 1550 ECL signal; in assay [7] it was 551 ECL signal; in assay [8], 612 ECL signal; in assay [9], 528 ECL signal.

B3: Fab VH1-46_IGHD3-10*01_IGHJ4*01 & B3_IGKJ1*01 (Fab, V domains shown)
VH: QVQLVQSGAEVKKPGASVKVSCKASGYTFTSYYMHWVRQAPGQGLEWMGIINPSGGSTSYAQKFQGRVTMTRDTSTSTVYMELSSLRSEDTAVYYCAREYYYGSGSYYNDYFDYWGQGTLVTVSS
VL: not shown
notes: also called IGHV1-46*01
On to B3, for which the ECL signal was determined as 2240 in [10]; 342 in [11]; 363 in assay [12]; 312 in [13]; 203 in assay [14]; 389 in assay [15]. Also, the ECL signal in assay [16] was 317; in assay [17], 347; in assay [18], 215.
